In patent publication US20220177596A1 (Bristol-Myers Squibb, published 2022):

Molecular target: T1, human-CD40 monomer (human, UniProt P25942 21-193, limits assumed)
T1 construct: also called hCD40-monomer; human-CD40-monomer protein
Assay: SPR 2 pt screen, Ab on protein A
Description: The VH sequences were formatted in the context of an IgG1.3f isotype. The Vκ sequences were formatted as a full light chain with a common CL sequence. All 55 combinations of these humanized HC and LC constructs, as well as the chimeric Y1238 molecule were expressed as 3 ml supernatants for binding analysis by SPR. Each of the 56 supernatants, as well as a purified Y1238-chimeric IgG1 antibody, was captured on a protein A sensor chip and tested for binding to two concentrations (i.e., 200 nM and 1000 nM) of hCD40-monomer using BIAcore™ SPR in a screening assay. All antibodies, except for those containing hz-HC3, captured at high levels (>300 RU) using a 100-fold dilution of the expression supernatant, indicating a high antibody titer in the supernatant except for the hz-HC3 samples. The kinetic data for the two concentrations of hCD40-monomer were fit to a 1:1 Langmuir model, to yield estimates of the kinetic and affinity values for these interactions, and for comparison of the different molecules. […] Also, for a given heavy chain, the antibodies with light chains hz-LC1 or hz-LC2 had higher CD40 affinity than those with hz-LC3, hz-LC4 or hz-LC5.

T1 sequence (P25942 21-193 limits assumed): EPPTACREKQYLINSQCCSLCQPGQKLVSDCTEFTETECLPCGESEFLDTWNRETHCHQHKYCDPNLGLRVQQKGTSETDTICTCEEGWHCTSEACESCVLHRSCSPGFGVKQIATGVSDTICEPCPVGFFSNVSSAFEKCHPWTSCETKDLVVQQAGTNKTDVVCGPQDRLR

| Binder | Kd | koff | kon |
| --- | --- | --- | --- |
| humanized Y1238 hz25 (hz-HC5 / hz-LC5), IgG1.3f (antibody, V domains shown, IgG1.3f heavy constant, common CL; expression supernatant; also called Sup 25) VH: QVQLVQSGAEVKKPGASVKVSCKASGYAFTNYLIEWVRQRPGQGLEWMGVINPGSGGTNYNEKFKGRVTMTADKSISTAYMELSRLRSDDTAVYYCARSQLGRRFDYWGQGTLVTVSS VL: DIQMTQSPSSLSASVGDRVTITCKASQDVRTGVAWYQQKPGQAPKLLIYSASYRNTGVPSRFSGSRSGTDFTFTISSLQPEDIAVYYCQQHYSPPYTFGGGTKVEIK | 6.6 nM | 0.00028 s⁻¹ | 43000 M⁻¹ s⁻¹ |
| humanized Y1238 hz10 (hz-HC2 / hz-LC5), IgG1.3f (antibody, V domains shown, IgG1.3f heavy constant, common CL; expression supernatant; also called Sup 10) VH: QVQLVQSGAEVKKPGASVKVSCKASGYAFTNYLIEWVRQAPGQGLEWMGVINPGSGGTNYNEKFKGRVTMTADTSISTAYMELSRLRSDDTAVYYCARSQLGRRFDYWGQGTLVTVSS VL: DIQMTQSPSSLSASVGDRVTITCKASQDVRTGVAWYQQKPGQAPKLLIYSASYRNTGVPSRFSGSRSGTDFTFTISSLQPEDIAVYYCQQHYSPPYTFGGGTKVEIK | 5.9 nM | 0.00027 s⁻¹ | 45000 M⁻¹ s⁻¹ |
| humanized Y1238 hz22 (hz-HC5 / hz-LC2), IgG1.3f (antibody, V domains shown, IgG1.3f heavy constant, common CL; expression supernatant; also called Sup 22) VH: QVQLVQSGAEVKKPGASVKVSCKASGYAFTNYLIEWVRQRPGQGLEWMGVINPGSGGTNYNEKFKGRVTMTADKSISTAYMELSRLRSDDTAVYYCARSQLGRRFDYWGQGTLVTVSS VL: DIQMTQSPSSLSASVGDRVTITCKASQDVRTGVAWYQQKPGKAPKLLIYSASYRNTGVPSRFSGSRSGTDFTFTISSLQPEDIATYYCQQHYSPPYTFGGGTKVEIK | 2.9 nM | 0.00012 s⁻¹ | 40000 M⁻¹ s⁻¹ |
| humanized Y1238 hz21 (hz-HC5 / hz-LC1), IgG1.3f (antibody, V domains shown, IgG1.3f heavy constant, common CL; expression supernatant; also called Sup 21) VH: QVQLVQSGAEVKKPGASVKVSCKASGYAFTNYLIEWVRQRPGQGLEWMGVINPGSGGTNYNEKFKGRVTMTADKSISTAYMELSRLRSDDTAVYYCARSQLGRRFDYWGQGTLVTVSS VL: DIQMTQSPSSLSASVGDRVTITCKASQDVRTGVAWYQQKPGKAPKLLIYSASYRNTGVPSRFSGSGSGTDFTFTISSLQPEDIATYYCQQHYSPPYTFGGGTKVEIK | 3.5 nM | 0.00015 s⁻¹ | 42000 M⁻¹ s⁻¹ |
| humanized Y1238 hz19 (hz-HC4 / hz-LC4), IgG1.3f (antibody, V domains shown, IgG1.3f heavy constant, common CL; expression supernatant; also called Sup 19) VH: QVQLVQSGAEVKKPGASVKVSCKASGYAFTNYLIEWVRQAPGQGLEWMGVINPGSGGTNYNEKFKGRVTMTADKSISTAYMELSRLRSDDTAVYYCARSQLGRRFDYWGQGTLVTVSS VL: DIQMTQSPSSLSASVGDRVTITCKASQDVRTGVAWYQQKPGQSPKLLIYSASYRNTGVPSRFSGSRSGTDFTFTISSLQAEDIAVYYCQQHYSPPYTFGGGTKVEIK | 6.3 nM | 0.00028 s⁻¹ | 45000 M⁻¹ s⁻¹ |
| humanized Y1238 hz7 (hz-HC2 / hz-LC2), IgG1.3f (antibody, V domains shown, IgG1.3f heavy constant, common CL; expression supernatant; also called Sup 7) VH: QVQLVQSGAEVKKPGASVKVSCKASGYAFTNYLIEWVRQAPGQGLEWMGVINPGSGGTNYNEKFKGRVTMTADTSISTAYMELSRLRSDDTAVYYCARSQLGRRFDYWGQGTLVTVSS VL: DIQMTQSPSSLSASVGDRVTITCKASQDVRTGVAWYQQKPGKAPKLLIYSASYRNTGVPSRFSGSRSGTDFTFTISSLQPEDIATYYCQQHYSPPYTFGGGTKVEIK | 2.7 nM | 0.00011 s⁻¹ | 43000 M⁻¹ s⁻¹ |
| humanized Y1238 hz20 (hz-HC4 / hz-LC5), IgG1.3f (antibody, V domains shown, IgG1.3f heavy constant, common CL; expression supernatant; also called Sup 20) VH: QVQLVQSGAEVKKPGASVKVSCKASGYAFTNYLIEWVRQAPGQGLEWMGVINPGSGGTNYNEKFKGRVTMTADKSISTAYMELSRLRSDDTAVYYCARSQLGRRFDYWGQGTLVTVSS VL: DIQMTQSPSSLSASVGDRVTITCKASQDVRTGVAWYQQKPGQAPKLLIYSASYRNTGVPSRFSGSRSGTDFTFTISSLQPEDIAVYYCQQHYSPPYTFGGGTKVEIK | 8.3 nM | 0.00037 s⁻¹ | 45000 M⁻¹ s⁻¹ |
| humanized Y1238 hz2 (hz-HC1 / hz-LC2), IgG1.3f (antibody, V domains shown, IgG1.3f heavy constant, common CL; expression supernatant; also called Sup 2) VH: QVQLVQSGAEVKKPGASVKVSCKASGYAFTNYLIEWVRQAPGQGLEWMGVINPGSGGTNYNEKFKGRVTMTRDTSISTAYMELSRLRSDDTAVYYCARSQLGRRFDYWGQGTLVTVSS VL: DIQMTQSPSSLSASVGDRVTITCKASQDVRTGVAWYQQKPGKAPKLLIYSASYRNTGVPSRFSGSRSGTDFTFTISSLQPEDIATYYCQQHYSPPYTFGGGTKVEIK | 5.2 nM | 0.00023 s⁻¹ | 45000 M⁻¹ s⁻¹ |
| humanized Y1238 hz5 (hz-HC1 / hz-LC5), IgG1.3f (antibody, V domains shown, IgG1.3f heavy constant, common CL; expression supernatant; also called Sup 5) VH: QVQLVQSGAEVKKPGASVKVSCKASGYAFTNYLIEWVRQAPGQGLEWMGVINPGSGGTNYNEKFKGRVTMTRDTSISTAYMELSRLRSDDTAVYYCARSQLGRRFDYWGQGTLVTVSS VL: DIQMTQSPSSLSASVGDRVTITCKASQDVRTGVAWYQQKPGQAPKLLIYSASYRNTGVPSRFSGSRSGTDFTFTISSLQPEDIAVYYCQQHYSPPYTFGGGTKVEIK | 11 nM | 0.0005 s⁻¹ | 47000 M⁻¹ s⁻¹ |
| humanized Y1238 hz9 (hz-HC2 / hz-LC4), IgG1.3f (antibody, V domains shown, IgG1.3f heavy constant, common CL; expression supernatant; also called Sup 9) VH: QVQLVQSGAEVKKPGASVKVSCKASGYAFTNYLIEWVRQAPGQGLEWMGVINPGSGGTNYNEKFKGRVTMTADTSISTAYMELSRLRSDDTAVYYCARSQLGRRFDYWGQGTLVTVSS VL: DIQMTQSPSSLSASVGDRVTITCKASQDVRTGVAWYQQKPGQSPKLLIYSASYRNTGVPSRFSGSRSGTDFTFTISSLQAEDIAVYYCQQHYSPPYTFGGGTKVEIK | 6.6 nM | 0.00031 s⁻¹ | 47000 M⁻¹ s⁻¹ |
| humanized Y1238 hz16 (hz-HC4 / hz-LC1), IgG1.3f (antibody, V domains shown, IgG1.3f heavy constant, common CL; expression supernatant; also called Sup 16) VH: QVQLVQSGAEVKKPGASVKVSCKASGYAFTNYLIEWVRQAPGQGLEWMGVINPGSGGTNYNEKFKGRVTMTADKSISTAYMELSRLRSDDTAVYYCARSQLGRRFDYWGQGTLVTVSS VL: DIQMTQSPSSLSASVGDRVTITCKASQDVRTGVAWYQQKPGKAPKLLIYSASYRNTGVPSRFSGSGSGTDFTFTISSLQPEDIATYYCQQHYSPPYTFGGGTKVEIK | 2.7 nM | 0.00012 s⁻¹ | 45000 M⁻¹ s⁻¹ |
| humanized Y1238 hz6 (hz-HC2 / hz-LC1), IgG1.3f (antibody, V domains shown, IgG1.3f heavy constant, common CL; expression supernatant; also called Sup 6) VH: QVQLVQSGAEVKKPGASVKVSCKASGYAFTNYLIEWVRQAPGQGLEWMGVINPGSGGTNYNEKFKGRVTMTADTSISTAYMELSRLRSDDTAVYYCARSQLGRRFDYWGQGTLVTVSS VL: DIQMTQSPSSLSASVGDRVTITCKASQDVRTGVAWYQQKPGKAPKLLIYSASYRNTGVPSRFSGSGSGTDFTFTISSLQPEDIATYYCQQHYSPPYTFGGGTKVEIK | 2.7 nM | 0.00012 s⁻¹ | 45000 M⁻¹ s⁻¹ |
| humanized Y1238 hz3 (hz-HC1 / hz-LC3), IgG1.3f (antibody, V domains shown, IgG1.3f heavy constant, common CL; expression supernatant; also called Sup 3) VH: QVQLVQSGAEVKKPGASVKVSCKASGYAFTNYLIEWVRQAPGQGLEWMGVINPGSGGTNYNEKFKGRVTMTRDTSISTAYMELSRLRSDDTAVYYCARSQLGRRFDYWGQGTLVTVSS VL: DIQMTQSPSSLSASVGDRVTITCKASQDVRTGVAWYQQKPGQSPKLLIYSASYRNTGVPSRFSGSRSGTDFTFTISSLQPEDIAVYYCQQHYSPPYTFGGGTKVEIK | 10 nM | 0.00048 s⁻¹ | 48000 M⁻¹ s⁻¹ |
| humanized Y1238 hz17 (hz-HC4 / hz-LC2), IgG1.3f (antibody, V domains shown, IgG1.3f heavy constant, common CL; expression supernatant; also called Sup 17) VH: QVQLVQSGAEVKKPGASVKVSCKASGYAFTNYLIEWVRQAPGQGLEWMGVINPGSGGTNYNEKFKGRVTMTADKSISTAYMELSRLRSDDTAVYYCARSQLGRRFDYWGQGTLVTVSS VL: DIQMTQSPSSLSASVGDRVTITCKASQDVRTGVAWYQQKPGKAPKLLIYSASYRNTGVPSRFSGSRSGTDFTFTISSLQPEDIATYYCQQHYSPPYTFGGGTKVEIK | 4.4 nM | 0.00018 s⁻¹ | 42000 M⁻¹ s⁻¹ |
| humanized Y1238 hz18 (hz-HC4 / hz-LC3), IgG1.3f (antibody, V domains shown, IgG1.3f heavy constant, common CL; expression supernatant; also called Sup 18) VH: QVQLVQSGAEVKKPGASVKVSCKASGYAFTNYLIEWVRQAPGQGLEWMGVINPGSGGTNYNEKFKGRVTMTADKSISTAYMELSRLRSDDTAVYYCARSQLGRRFDYWGQGTLVTVSS VL: DIQMTQSPSSLSASVGDRVTITCKASQDVRTGVAWYQQKPGQSPKLLIYSASYRNTGVPSRFSGSRSGTDFTFTISSLQPEDIAVYYCQQHYSPPYTFGGGTKVEIK | 7.6 nM | 0.00035 s⁻¹ | 46000 M⁻¹ s⁻¹ |
| humanized Y1238 hz8 (hz-HC2 / hz-LC3), IgG1.3f (antibody, V domains shown, IgG1.3f heavy constant, common CL; expression supernatant; also called Sup 8) VH: QVQLVQSGAEVKKPGASVKVSCKASGYAFTNYLIEWVRQAPGQGLEWMGVINPGSGGTNYNEKFKGRVTMTADTSISTAYMELSRLRSDDTAVYYCARSQLGRRFDYWGQGTLVTVSS VL: DIQMTQSPSSLSASVGDRVTITCKASQDVRTGVAWYQQKPGQSPKLLIYSASYRNTGVPSRFSGSRSGTDFTFTISSLQPEDIAVYYCQQHYSPPYTFGGGTKVEIK | 6.2 nM | 0.00029 s⁻¹ | 46000 M⁻¹ s⁻¹ |
| humanized Y1238 hz4 (hz-HC1 / hz-LC4), IgG1.3f (antibody, V domains shown, IgG1.3f heavy constant, common CL; expression supernatant; also called Sup 4) VH: QVQLVQSGAEVKKPGASVKVSCKASGYAFTNYLIEWVRQAPGQGLEWMGVINPGSGGTNYNEKFKGRVTMTRDTSISTAYMELSRLRSDDTAVYYCARSQLGRRFDYWGQGTLVTVSS VL: DIQMTQSPSSLSASVGDRVTITCKASQDVRTGVAWYQQKPGQSPKLLIYSASYRNTGVPSRFSGSRSGTDFTFTISSLQAEDIAVYYCQQHYSPPYTFGGGTKVEIK | 8.9 nM | 0.00042 s⁻¹ | 48000 M⁻¹ s⁻¹ |
